In publication PMC11408864:

How the values were obtained:
[1] = molecular target: TDP43 low complexity domain (TDP43-LCD) condensates (UniProt Q13148)
[2] = molecular target: TDP43-LCD condensates, 2% Alexa Fluor 488 labeled (UniProt Q13148)
[3] = molecular target: TDP43 low complexity domain (TDP43-LCD) condensates (UniProt Q13148); assay: co-sedimentation; TDP43-LCD condensates (50 μM) mixed with spin-labeled Httex1(Q46)-35R1 monomers (pre-filtered, 100 kD) or fibrils (sonicated, unbundled), 20 μM starting concentration; 123,000g at 4 °C; Httex1 in pellet and supernatant quantified by EPR

t1/2 of ThT fluorescence of 50 μM TDP43-LCD with 5 μM and 20 μM Httex1(Q46) fibrils (∼4 h and ∼1.5 h; ∼7 h without fibrils) [1] | percent of TDP43-LCD condensates irregularly shaped after 4 h of co-incubation with Httex1(Q46) fibrils (∼10% without fibrils), fluorescence microscopy [2] | concentration of Httex1(Q46) in the pellet [3] | Substance
4 h | 60% |  | Httex1(Q46) fibrils, Alexa Fluor 594 labeled (domain or fragment)
 |  | < 0.3 µM | Httex1(Q46)-35R1 monomer (domain or fragment)
